Test results as given in article PMC7429481 (British Journal of Pharmacology, 2020).

Tests used:
[1] = molecular target: T1, human SNAP‐GLP‐1 receptor (Homo sapiens, UniProt P43220); assay: cAMP by HTRF in HEK293‐SNAP‐GLP‐1 receptor cells; type: cell-based; settings: 30 min incubation, n = 5
[2] = molecular target: T1, human SNAP‐GLP‐1 receptor; assay: GLP‐1 receptor recycling by TR‐FRET in CHO‐K1‐SNAP‐GLP‐1 receptor cells; type: cell-based; settings: H89 10 μM, exendin‐4 100 nM 30 min, n = 5

T1 sequence (P43220 24-463): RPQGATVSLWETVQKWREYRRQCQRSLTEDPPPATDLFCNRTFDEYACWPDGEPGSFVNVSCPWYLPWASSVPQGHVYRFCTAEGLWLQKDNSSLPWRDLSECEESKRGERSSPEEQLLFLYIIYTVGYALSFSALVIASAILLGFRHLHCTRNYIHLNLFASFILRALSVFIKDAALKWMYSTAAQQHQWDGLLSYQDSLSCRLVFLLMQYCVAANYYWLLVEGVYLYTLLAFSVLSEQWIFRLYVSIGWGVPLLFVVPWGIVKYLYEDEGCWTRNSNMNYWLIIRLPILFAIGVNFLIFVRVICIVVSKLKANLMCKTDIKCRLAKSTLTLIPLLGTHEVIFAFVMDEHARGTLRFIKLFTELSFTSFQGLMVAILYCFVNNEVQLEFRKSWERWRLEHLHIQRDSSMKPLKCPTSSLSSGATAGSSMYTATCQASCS

effect on GLP‐1 receptor recycling after exendin‐4 pretreatment [2]	Molecule	cAMP signalling potency of FITC conjugate [1]
	lixisenatide‐FITC: FITC‐conjugate of lixisenatide	reduced cAMP signalling potency
did not affect	O=S(=O)(NCCNC/C=C/c1ccc(Br)cc1)c1cccc2cnccc12 [H89]	
